# Results: PMC3609803, “SipB-SipC Complex Is Essential for Translocon Formation” (PLoS ONE, 2013)
# B1: His-SipC-N (domain or fragment)
# chain: MLISNVGINPAAYLNNHSVENSSQTASQSVSAKDILNSIGISSSKVSDLGLSPTLSAPAPGVLTQTPGTITSFLKASIQNTDMNQDLNALANNVTTKANEVVQTQLREQQAEVGKFFDIS
# notes: N-terminal region of SipC of Salmonella enterica serovar Typhimurium; also called wild-type SipC-N; source: His-tagged recombinant protein, purified
# Target: T1, GST-SicA (Salmonella enterica serovar Typhimurium, UniProt P69066 1-165)
# T1 construct: SicA, the chaperone for SipC, Salmonella enterica serovar Typhimurium; source: GST-tagged recombinant protein, purified
# T1 sequence (P69066 whole entry): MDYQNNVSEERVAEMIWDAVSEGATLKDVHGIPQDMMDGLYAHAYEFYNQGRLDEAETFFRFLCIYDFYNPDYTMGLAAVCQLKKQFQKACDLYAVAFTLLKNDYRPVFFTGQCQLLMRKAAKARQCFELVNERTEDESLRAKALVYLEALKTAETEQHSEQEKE
# Assay: pull-down; purified His-SipC-N and derivatives immobilised on Ni-NTA beads, 1 hr at 4°C; GST or GST-SicA added, 2 hrs at 4°C; washed four times in PBS with 1% NP-40; blotted with anti-His and anti-GST
# Conditions: both partners purified
binder,measurement,value
B1,binding result,binds
